Source: US20210147570A1

Columns and labels:
[1] = biological target: human CD73 (cell-surface) (human) (UniProt P21589); test: cell-based or functional assay
[2] = biological target: human CD73 (cell-surface) (human) (UniProt P21589); test: CD73 binding in cell lines (human), EC50 range; method not stated
[3] = biological target: human CD73 (cell-surface) (human) (UniProt P21589); test: CD73 binding in cell lines (human), median EC50; method not stated

Sequence of human CD73 (cell-surface) (human) (P21589 27-549): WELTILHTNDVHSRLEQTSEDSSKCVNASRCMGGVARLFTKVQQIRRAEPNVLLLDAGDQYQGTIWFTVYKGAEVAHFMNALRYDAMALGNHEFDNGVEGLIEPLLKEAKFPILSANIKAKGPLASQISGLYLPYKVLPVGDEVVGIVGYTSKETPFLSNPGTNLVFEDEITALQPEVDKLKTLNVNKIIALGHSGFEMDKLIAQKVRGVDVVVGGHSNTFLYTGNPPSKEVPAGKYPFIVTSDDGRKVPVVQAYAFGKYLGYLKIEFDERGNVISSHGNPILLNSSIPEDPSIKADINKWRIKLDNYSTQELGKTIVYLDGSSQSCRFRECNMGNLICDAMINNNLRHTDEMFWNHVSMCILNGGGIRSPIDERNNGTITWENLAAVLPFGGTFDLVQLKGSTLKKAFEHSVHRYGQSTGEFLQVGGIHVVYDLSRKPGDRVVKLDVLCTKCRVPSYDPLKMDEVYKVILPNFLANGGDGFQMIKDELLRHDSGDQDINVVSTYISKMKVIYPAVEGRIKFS

B1: CD73.4-IgG2C219S.IgG1.1f (antibody, V domains shown)
VH: QVQLVESGGGVVQPGRSLRLSCAASGFTFSNYGMHWVRQAPGKGLEWVAVILYDGSNKYYPDSVKGRFTISRDNSKNTLYLQMNSLRAEDTAVYYCARGGSSWYPDSFDIWGQGTMVTVSS
VL: DIQMTQSPSSLSASVGDRVTITCRASQGISSWLAWYQQKPEKAPKSLIYAASSLQSGVPSRFSGSGSGTDFTLTISSLQPEDFATYYCQQYNSYPLTFGGGTKVEIKR
Cellular Enzyme Inhibition (blockade of AMP processing), median EC50 [1]: 0.39 nM | Internalization, max level [1]: 97.5% | Internalization, median EC50 [1]: 1.2 nM | EC50 [2]: 0.3 to 0.67 nM | EC50 [3]: 0.5 nM
